From the RNAGym collection of RNA variant scans (doi:10.1021/acssynbio.7b00057)

B1: Pistol ribozyme (parent)
chain: GGGUCGUUGUUCCAUAAUCGCGUGGAUAUGGCACGCAAGUUUCUACCGGGCACCGUAAAUGUCCGACUGGAGCCGUUCGGGCGGCUAUAAACAGACCUCAGGCCCGAAGCGUGGCGGCACCUGCCGCCGGUGGUAAAAAAGAUCGGAAGAGCACACGUCU

Variants of: B1
Assay: aptazyme ON/OFF ratio, guanine; higher = stronger switching; co-transcriptional cleavage with and without guanine

Row | Variant | aptazyme ON/OFF ratio
1 | U8A G9U U10G U11C C12G C13U | 1.12
2 | U8A G9U U10G U11C C12G C13G | 1.07
3 | U8A G9U U11G C12U C13U | 1.5
4 | U8A G9U U11G C12U C13G | 1.19
5 | U8A G9U U11G C12U C13A | 1.41
6 | U8A U10C U11G C12U C13G | 1.2
7 | U8A U10C U11G C12U C13A | 1.26
8 | U8A U10C U11G C12U C13U | 1.27
9 | U8A U10G C12A C13G | 1.09
10 | U8A U10G C12A C13U | 1.23
11 | U8A U10G C12A C13A | 1.23
12 | U8A U10G C13U | 1.18
13 | U8A U10G C13A | 1.52
14 | U8A U10G C13G | 1.23
15 | U8A G9U U10G U11G C13U | 1.03
16 | U8A G9U U10G U11G C13G | 1.06
17 | U8A G9U U10G U11G C13A | 1.08
18 | U8A G9U U10G C12U C13G | 1.27
19 | U8A G9U U10G C12U C13A | 1.31
20 | U8A G9U U10G C12U C13U | 1.45
21 | U8A G9U U10C U11G C12G | 1.09

Row | Variant | aptazyme ON/OFF ratio
22 | U8A G9U U10C U11G C12A | 1.05
23 | U8A G9U U10C U11G C12U | 1.18
24 | U8A U10C U11G C12G C13U | 1.14
25 | U8A U10C U11G C12G C13A | 1.29
26 | U8A U10C U11G C12G C13G | 1.26
27 | U8A U10G U11A C12A C13U | 1.11
28 | U8A U10G U11A C12A C13A | 1.3
29 | U8A U10G U11A C12A C13G | 1.15
30 | U8A U10G U11A C12A | 1.06
31 | U8A U10G U11A C12U | 1.12
32 | U8A U10G U11A C12G | 1.1
33 | U8A G9U U10C U11G C12A C13U | 1.12
34 | U8A G9U U10C U11G C12A C13G | 1.25
35 | U8A G9U U10C U11G C12A C13A | 1.19
36 | U8A U10C C13A | 1.05
37 | U8A U10C C13G | 1.05
38 | U8A U10C C13U | 1.19
39 | U8A U10C C12G C13A | 1.19
40 | U8A U10C C12G C13G | 1.45
41 | U8A U10C C12G C13U | 1.44
42 | U8A G9U U10C U11A C12A | 1.11

Row | Variant | aptazyme ON/OFF ratio
43 | U8A G9U U10C U11A C12U | 1.18
44 | U8A G9U U10C U11A C12G | 1.06
45 | U8A G9U U11G C12A | 1.07
46 | U8A G9U U11G C12G | 1.12
47 | U8A G9U U11G C12U | 1.51
48 | U8A G9U U10C U11A C12G C13U | 1.14
49 | U8A G9U U10C U11A C12G C13A | 1.15
50 | U8A G9U U10C U11A C12G C13G | 1.12
51 | U8A U10C | 4.03
52 | U8A U10A | 1.07
53 | U8A U10G | 1.62
54 | U8A U10A C13U | 1.03
55 | U8A U10A C13A | 1.05
56 | U8A U10A C13G | 1.06
57 | U8A U10G U11A C13G | 1.12
58 | U8A U10G U11A C13A | 1.07
59 | U8A U10G U11A C13U | 1.13
60 | U8A G9U U10C U11C C12U C13A | 1.04
61 | U8A G9U U10C U11C C12U C13U | 1.04
62 | U8A G9U U10C U11C C12U C13G | 1.04
63 | U8A U10C U11A C12G | 1.19

Row | Variant | aptazyme ON/OFF ratio
64 | U8A U10C U11A C12U | 1.2
65 | U8A U10C U11A C12A | 1.13
66 | U8A G9U U10C U11G C12G C13G | 1.11
67 | U8A G9U U10C U11G C12G C13A | 1.15
68 | U8A G9U U10C U11G C12G C13U | 1.11
69 | U8A G9U U10C U11A C13A | 1.06
70 | U8A G9U U10C U11A C13U | 1.17
71 | U8A G9U U10C U11A C13G | 1.03
72 | U8A U10C U11A C12U C13G | 1.23
73 | U8A U10C U11A C12U C13U | 1.31
74 | U8A U10C U11A C12U C13A | 1.16
75 | U8A U10G C12G C13A | 1.37
76 | U8A U10G C12G C13G | 1.12
77 | U8A U10G C12G C13U | 1.34
78 | U8A G9U U11A C12G C13G | 1.3
79 | U8A G9U U11A C12G C13U | 1.3
80 | U8A G9U U11A C12G C13A | 1.32
81 | U8A U10A U11C C12U | 1.01
82 | U8A U10A U11C C12G | 1.08
83 | U8A U10A U11C C12A | 1.09
